Results taken from publication PMC5385344, “Large Diversity of Functional Nanobodies from a Camelid Immune Library Revealed by an Alternative Analysis of Next-Generation Sequencing Data” (Frontiers in Immunology, 2017).

B1: nanobody 8C09 (VHH)
VHH: EVQLVESGGGLVQAGGSLRLACAASGRISSTYRMGWFRQAPGKEREFVAASRWSGGGVLYTDSVKGRFTISTDNGKNMVYLQMNSLRPEDTAVYYCAGRNYGTTEYGYWGQGTQVTVSS
notes: From a llama immunised with rhRON; found by conventional screening and by NGS; source: E. coli, crude periplasmic extract; E. coli, purified; not shown: FLAG3, C-terminal, kept
B2: nanobody 5C06 (VHH)
VHH: EVQLVESGGGLVQPGGSLRLSCAASGFTLDYYAIGWFRQAPGKEREGVSCISSSDGSTYYADSVKGRFTISRDNAKNTVYLQMNSLKPEDTAVYYCATDLKRRCRDYARPQRGNDYWGQGTQVTVSS
notes: as for B1
B3: nanobody 8A09 (VHH)
VHH: EVQLVKSGGGLVQAGGSLRLSCAASGRVAMGWFRQPPGKEREFVAAISASGATKYYADSVKGRFTIFRDNANTTVYLQMNSLKPEDTAVYYCAARLRWDSDYTSGGRYDYWGQGTQVTVSS
notes: as for B1
B4: nanobody 2D07 (VHH)
VHH: EVQLVESGGGLVQPGGSLRLSCAASGFTFRAYNMNWLRQAPGKGLEWVSVISGGGGGTLYADSVKGRFTISRDNAKNTLYLQMNSLKPEDTAVYYCAGSDFFADYGRPRHEYRYWGQGTQVTVSS
notes: as for B1
B5: nanobody 2B09 (VHH)
VHH: EVQLVESGGGLVQPGGSLRLSCAASGFSLDNYGIGWFRQAPGKEREGVSYISSTSLTRYYAASVKGRFTISRDNSKNTVYLQMNSLNPEDTAVYYCASTDRWPGIEWYRGEYDNWGQGTQVTVSS
notes: as for B1
B6: nanobody 8D12 (VHH)
VHH: EVQLVESGGGLVQAGGSLRLSCAASGRYAMGWFRQAPGKEREFVGVISKSGGSTYIADSVKGRFTISRHNAKSTAYLQMNNLRPEDTAVYYCAANGFLGTSGRRVDQYDYWGQGTQVTVSS
notes: as for B1
B7: nanobody 8G11 (VHH)
VHH: EVQLVESGGGLVQAGGSLRLSCAASGGIFDNYAMGWIRQAPGKEREFVAGIRWSESSTYYAASVKGRFTISRDNAKNTVYLQMNSLKPEDTAVYSCAAWFWISSTWSYFSENEPNYRGPGTLVTVSS
notes: as for B1
B8: nanobody 2C06 (VHH)
VHH: EVQLVESGGGLVQTGGSLRLSCARSGPTFSDYAMAWFRQARGKEREFVASITWIGGSTYYADSVKGRFTISRDSAKDTMYLQMNTLKPEDTADYYCAIARLGTYYGSYIRAYFNRGRYEYWGQGTQVTVSS
notes: as for B1
B9: nanobody 5G04 (VHH)
VHH: EVQLVESGGALVQAGDSLRVSCVASGRTFSHYAMGWFRQAPGKQREFVAAISWDGDSTSYANSLKGRFTISRDNAKNTGYLYMNSLIPEDTAVYYCAAGPNFSTLARRYDYWGQGTLVTVSS
notes: as for B1
B10: KY704059 (VHH)
VHH: EVQLVESGGGLVQAGGSLRLSCTASGRSFSRYTMGWFRQAAGKERVFVAHIAWSGGTRYYADSVKGRFTISRDNAKNTVWLQMNSLKPEDTAVYYCAATSQTGLIVVNTRDYEIWGQGTLVTVSS
B11: KY704056 (VHH)
VHH: EVQLVESGGGLVQAGGSLRLSCAASGRYVMGWFRQAPGKEREFVAAITRSGATTNYADSVKGRFTISRDSAKITVYLQMDSLKPEDTAVYYCAASGRYYTAAVEGANYDYWGQGTLVTVSS
B12: KY704053 (VHH)
VHH: EVQLVESGGGLVQAGDSLRLSCAASGRTFSIYSMGWFRQATGKEREFVAAIRWSGTRTYYADSVKGRFTISGDIAKNTVYLQMNNLKPEDTAVYSCAAGGSRGYVAAPDRWDYWGQGTLVTVSS
B13: KY704052 (VHH)
VHH: EVQLVESGGGLVQAGGSLRLSCAASGRTFSDYSMGWFRQAPGKEREPVAAVSRSGDDLMYENSLKGRFAISRDNAKNTVYLQMNSLKPEDTAVYYCAASTRFITALAANYDYWGQGTLVTVSS
B14: KY704058 (VHH)
VHH: EVQLVESGGGLVQAGDSLRLSCAASGGTLNGYAMAWFRQAPGKERDVVATINWSGSWKYYADSVKGRFTISRDNAKGTVYLQMNSLKPEDTAVYRCAARRGGGNYYTRAVDFDYWGQGTLVTVSS
B15: KY704049 (VHH)
VHH: EVQLVESGGGVVQTGGSLRLSCAASGRYAMGWFRQVSGKEREFVAFISASGGSTYYADSVKGRFTISRDNAKTTLAYLQMISLKPEDTAVYYCATSGGIFRGLYYDTRNYNYWGQGTLVTVSS
B16: KY704060 (VHH)
VHH: EVQLVESGGGLVQSGDSLRLSCAASGRSFSRSTMGWFRQAPEKEREFVAVISWAGTTTYYHDSVKGRFTISRDNAKNTVYLQMNSLKPEDTAVYYCAGGRDARILRNARDYDYWGQGTLVTVSS
B17: KY704061 (VHH)
VHH: EVQLVESGGGLVQAGGSLRLSCAASGRTFSNDAMGWFRQAPGKERAFVGVINWNGVTTRYTDSVEGRFTISRDNAKNTVYLQMNSLKPEDTAVYFCAAGGGPVAVSSGRSAYWGQGTLVTVSS
B18: KY704062 (VHH)
VHH: EVQLVESGGGLVQAGGSLRLSCAASGLAFSSYAAGWFRQAPGKEREFLAVISRGGGTTYYANFVKGRFSISRDNAENTVYLQMNSLKPEDTAVYYCGADTYFGRLVSDPITSDYWGQGTLVTVSS
B19: KY704054 (VHH)
VHH: EVQLVESGGGLVQTGGSLRLSCAASGIYFRLYTMGWYRQAPGNQRELVALITSTRSTHYADSVKGRFTISRDNAKNTLYLQMNSLKPEDTAVYYCNAHNGQGDFWGQGTLVTVSS
B20: KY704055 (VHH)
VHH: EVQLVESGGGVVQAGGSLRLSCAASGRYGVGWFRQPPGKEREFVSAVSKSGGSTYYEDSVKGRFTISRDGAKNTVYLQMNSLKPEDTAVYYCAADGGGYSAYYYYTHQTEYEYWGQGTLVTVSS
B21: KY704048 (VHH)
VHH: EVQLVESGGGLVQAGGSLRLSCAASGDTFSTYGMGWFRQAPGKEREIVARITWNRRTYYADSVKGRFTISRDNAKNAAYLEMNSLKPEDTAVYMCAAVRGDNLFHTRPRDYDYWGQGTLVTVSS
B22: KY704050 (VHH)
VHH: EVQLVESGGGLVQAGGSLRLSCVASGRTLSSYTMGWFRQAPGKEREFLALITWSGGSTHYADSVKGRFTISRDNPKNTAYLQMGSLKPEDTAVYFCAARFRGVIATMARDYDYWGQGTLVTVSS

Target: T1, RON endogenously expressed on T-47D human breast cancer cells (Homo sapiens (T-47D cell line), UniProt Q04912)
T1 construct: recepteur d'origine nantais (RON), endogenous on the human breast cancer cell line T-47D; also called hRON; source: endogenous, on T-47D cells
T1 sequence (Q04912 25-1400): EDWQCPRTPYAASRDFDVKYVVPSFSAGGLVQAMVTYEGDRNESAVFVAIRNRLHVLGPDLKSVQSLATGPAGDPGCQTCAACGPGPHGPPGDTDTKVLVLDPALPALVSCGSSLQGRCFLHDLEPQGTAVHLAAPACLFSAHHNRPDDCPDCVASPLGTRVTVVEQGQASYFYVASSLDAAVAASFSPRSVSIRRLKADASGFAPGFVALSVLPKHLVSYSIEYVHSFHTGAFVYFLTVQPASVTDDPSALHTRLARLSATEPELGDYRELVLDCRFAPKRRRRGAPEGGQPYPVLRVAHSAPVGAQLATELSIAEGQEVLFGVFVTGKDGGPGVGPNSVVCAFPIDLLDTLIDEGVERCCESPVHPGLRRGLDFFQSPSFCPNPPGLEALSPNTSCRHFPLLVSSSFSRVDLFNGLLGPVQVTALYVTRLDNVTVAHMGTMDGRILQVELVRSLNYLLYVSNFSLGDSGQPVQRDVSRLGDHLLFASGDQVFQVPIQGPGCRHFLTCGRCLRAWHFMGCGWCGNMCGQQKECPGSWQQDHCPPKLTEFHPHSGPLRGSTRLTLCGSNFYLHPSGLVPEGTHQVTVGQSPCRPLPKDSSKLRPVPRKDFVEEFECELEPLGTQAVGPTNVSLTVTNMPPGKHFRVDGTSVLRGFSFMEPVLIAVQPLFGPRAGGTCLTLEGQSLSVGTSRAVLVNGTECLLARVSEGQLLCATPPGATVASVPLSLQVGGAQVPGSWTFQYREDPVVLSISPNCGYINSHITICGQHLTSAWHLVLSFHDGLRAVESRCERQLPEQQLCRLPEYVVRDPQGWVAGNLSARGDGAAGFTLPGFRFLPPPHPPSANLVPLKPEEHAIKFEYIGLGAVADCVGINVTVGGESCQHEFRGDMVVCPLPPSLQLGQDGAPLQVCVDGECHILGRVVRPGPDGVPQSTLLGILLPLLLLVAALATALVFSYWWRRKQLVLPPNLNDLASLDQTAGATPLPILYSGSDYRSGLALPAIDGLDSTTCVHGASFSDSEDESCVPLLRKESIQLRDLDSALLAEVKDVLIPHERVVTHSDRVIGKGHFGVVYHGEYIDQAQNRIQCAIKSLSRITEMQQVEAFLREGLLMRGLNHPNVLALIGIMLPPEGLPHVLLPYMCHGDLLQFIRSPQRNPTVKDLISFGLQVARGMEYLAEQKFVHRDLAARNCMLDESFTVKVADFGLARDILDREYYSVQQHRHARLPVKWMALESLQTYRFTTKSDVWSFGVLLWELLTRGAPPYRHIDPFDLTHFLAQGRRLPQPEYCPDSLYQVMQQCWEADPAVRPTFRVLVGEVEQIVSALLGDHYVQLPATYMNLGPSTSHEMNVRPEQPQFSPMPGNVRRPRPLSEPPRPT
Assay: flow cytometry on cells; dilution series of purified nanobodies starting at 500 nM on T-47D cells endogenously expressing RON; anti-FLAG then anti-mouse APC
Conditions: one partner purified

Row | Binder | EC50 [nM]
1 | B1 | 170
2 | B2 | 200
3 | B3 | 0.093
4 | B4 | 5
5 | B5 | 1.3
6 | B6 | 0.061
7 | B7 | 34
8 | B8 | > 1000
9 | B9 | 0.33

Target: full-length human RON expressed on HEK293T cells (HEK293T-hRON) (Homo sapiens, UniProt Q04912)
Sequence (Q04912 25-1400): as above
Assay: not given
Conditions: not given

Row | Binder | binding result
10 | B10 | binds
11 | B11 | binds
12 | B12 | binds
13 | B13 | binds
14 | B14 | binds
15 | B15 | binds
16 | B16 | binds
17 | B17 | binds
18 | B18 | binds
19 | B19 | binds
20 | B20 | binds
21 | B21 | binds
22 | B22 | binds

Target: T2, Recombinant extracellular domain of human RON (rhRON) (human, UniProt Q04912)
T2 sequence (Q04912 25-957): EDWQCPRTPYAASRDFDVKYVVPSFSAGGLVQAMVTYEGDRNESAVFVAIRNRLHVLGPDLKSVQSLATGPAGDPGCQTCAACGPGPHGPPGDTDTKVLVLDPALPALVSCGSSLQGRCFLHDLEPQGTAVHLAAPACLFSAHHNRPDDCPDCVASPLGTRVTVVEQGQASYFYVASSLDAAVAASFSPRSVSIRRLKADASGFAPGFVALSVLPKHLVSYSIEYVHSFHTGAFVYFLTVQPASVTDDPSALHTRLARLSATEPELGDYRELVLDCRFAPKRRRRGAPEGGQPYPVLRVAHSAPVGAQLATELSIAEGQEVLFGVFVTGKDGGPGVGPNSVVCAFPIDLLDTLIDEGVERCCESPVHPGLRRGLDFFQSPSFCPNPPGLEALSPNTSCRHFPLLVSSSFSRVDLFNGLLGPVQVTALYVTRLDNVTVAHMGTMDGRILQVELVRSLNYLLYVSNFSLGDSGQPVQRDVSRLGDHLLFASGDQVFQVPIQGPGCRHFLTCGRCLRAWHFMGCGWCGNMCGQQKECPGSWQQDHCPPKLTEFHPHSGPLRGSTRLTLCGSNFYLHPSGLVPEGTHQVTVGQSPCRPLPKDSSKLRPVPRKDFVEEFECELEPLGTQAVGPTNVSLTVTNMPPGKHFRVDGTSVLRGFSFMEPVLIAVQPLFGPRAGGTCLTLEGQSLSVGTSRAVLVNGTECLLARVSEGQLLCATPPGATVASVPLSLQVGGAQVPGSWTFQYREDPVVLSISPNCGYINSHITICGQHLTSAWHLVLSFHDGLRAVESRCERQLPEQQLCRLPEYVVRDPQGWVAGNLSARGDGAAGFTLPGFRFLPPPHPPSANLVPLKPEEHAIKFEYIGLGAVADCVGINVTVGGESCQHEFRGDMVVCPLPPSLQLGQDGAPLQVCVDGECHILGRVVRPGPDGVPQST
Assay: not given
Conditions: not given

Row | Binder | binding result
23 | B10 | binds
24 | B11 | binds
25 | B12 | binds
26 | B13 | binds
27 | B14 | binds
28 | B15 | binds
29 | B16 | binds
30 | B17 | binds
31 | B18 | binds
32 | B19 | binds
33 | B20 | binds
34 | B21 | binds
35 | B22 | binds

Target: T2, Recombinant extracellular domain of …
Assay: ELISA; ligand competition: rhRON (1 µg/ml) immobilised directly; dilution series of purified nanobodies starting at 1 µM added together with 2 nM biotinylated MSP; MSP detected by extravidin peroxidase
Conditions: both partners purified

Row | Binder | IC50 [nM] | maximum inhibition of MSP binding [%]
36 | B1 | 47 | 90
37 | B2 | 22 | 98
38 | B3 | 16 | 98
39 | B6 | 11 | 98
40 | B7 | 240 | 92
41 | B8 | 250 | 90

Target: T1, RON endogenously expressed on T-47D …
Assay: cell-based or functional assay
Conditions: not given

Row | Binder | IC50 (M) inhibition of ERK phosphorylation induced by 1 nM MSP through RON on T-47D cells; purified nanobody, HTRF phospho-ERK [M] | maximum inhibition (efficacy) of MSP-induced ERK phosphorylation in T-47D cells [%]
42 | B1 | 3.3e-08 | 100
43 | B2 | 1.2e-07 | 98
44 | B3 | 4.9e-09 | 100
45 | B4 | 1.8e-08 | 100
46 | B5 | 9.6e-08 | 96
47 | B6 | 1.5e-08 | 100
48 | B7 | 8.2e-08 | 98
49 | B8 | 3e-07 | 92
50 | B9 | 4.9e-09 | 100

Target: T2, Recombinant extracellular domain of …
Assay: SPR; ProteOn; rhRON immobilised on GLC chip; 1/10 diluted crude periplasmic extracts injected 2 min at 45 µl/min; Langmuir model, off-rate only
Conditions: one partner purified

Row | Binder | koff [s⁻¹]
51 | B1 | 0.0023
52 | B2 | 0.0037
53 | B3 | 0.00062
54 | B4 | 0.005
55 | B5 | 0.0018
56 | B6 | 0.00051
57 | B7 | 0.00097
58 | B8 | 0.0069
59 | B9 | 0.00029
